Experimental data reported in the DeepSol protein solubility set.

Assay: soluble on expression in E. coli; label from the status in PepcDB or PDB records

| Sequence | soluble on expression in E. coli |
| --- | --- |
| MTNKISSSDNLSNAVSATDDNASRTPNLNRRALVGGGVGLAARGALASGLQAATLPAGASQVPTTPAGRPMPYAIRPMPEDRRFGYAIVGLGKYALNQILPGFAGCQHSRIEALVSGNAEKAKIVAAEYGVDPRKIYDYSNFDKIAKDPKIDAVYIILPNSLHAEFAIRAFKAGKHVMCEKPMATSVADCQRMIDAAKAANKKLMIGYRCHYDPMNRAAVKLIRENQLGKLGMVTTDNSDVMDQNDPAQQWRLRRELAGGGSLMDIGIYGLNGTRYLLGEEPIEVRAYTYSDPNDERFVEVEDRIIWQMRFRSGALSHGASSYSTTTTSRFSVQGDKAVLLMDPATGYYQNLISVQTPGHANQSMMPQFIMPANNQFSAQLDHLAEAVINNKPVRSPGEEGMQDVRLIQAIYEAARTGRPVNTDWGYVRQGGY | soluble |
| MSNVVVCALYKFVSLPHFESLREPLLSMMEQAEIKGTLLLASEGINGTVAGNQAAIDALLIWLNQQNGLENITYKLSFDDEMPFYRTKVKLKKEIVTMGVEGIDPLKVVGTYVKPKDWNALISDPEVVLVDTRNDYEVQIGTFKNAINPVTETFREFPEYVKQNLDPAKHKKVAMFCTGGIRCEKSTAYLKEQGFEEVYHLEGGILKYLEEVNKAESLWEGECFVFDNRVAVDHDLKKGQYDQCNACRMPITEAEKLTPDYVQGVSCPHCIDKISEEQRKRFVERERQVNLAKSRNEAHIGSDVNHVIEARRQKKEALRKQSAEKNKAKQANALEHHHHHH | soluble |
| MSLIEENLKQKIHDKFVAAKKNGHLKVTHAESKKLKDPQTTTQYWVTFAPSLALKPDANKNSDSKAEDPFANPDEELVVTEDLNGDGEYKLLLNKFPVVPEHSLLVTSEFKDQRSALTPSDLMTAYNVLCSLQGDKDDDVTCERYLVFYNCGPHSGSSQDHKHLQIMQMPEKFIPFQDVLCNGKDHFLPTFNAEPLQDDKVSFAHFVLPLPESSDQVDEDLLAMCYVSLMQRALTFFQDWTNESPELTKSYNVLLTKKWICVVPRSHAKSGPPLMLNINSTGYCGMILVKDREKLENLTEDPHLVDKSLLQCGFPNTAGQKPTEYHYEGHHHHHH | soluble |
| MANQHFAKEAPETYWKTSTDLPSFPALQEDTECDVTIIGGGITGITTAYELTKRGFRVVLIEANQVLNGTTAHTTAKVTAQHDMIYDEFIRHFGLNHARLYYEANQNAIDYIKGIVDEHQIDCEWIEQDAYLYTANENAVQKIHTEHEAYTKLGIERDLIKDLPIPLGSKLALVMKNQAQFHPLQYLKALLEQIVQKGGRIYEETVALDIKKGERPEVVTKSRHAIKSRFIICCSHFPFYDGGGLYAARMYSDRSYVLAIKPKIEYPEGMYLSIDQPSVALRYTVVNGEKLILFSGVSHKTGQGKAMSTHYETLRQLAESTIGIESIPYYWSTQDLVTIDKIPFIGPMSENEDNILVATGFKKWGMTSSAVAATLLSDLVEKKENPYESIFTPSRFHLNPGLQKVISYNADVAKHLIKGKLEKPDVQFEDISPGEGKAVTINGRRAGAFRDETGCLHLVDTTCTHLGCEVEWNDSEHTWDCPCHGSRFKPSGEVVEGPAIKPLKQIDLDLEHHHHHH | soluble |
| MGKFISGSIVAILTDQIEESTACNLKHLLRNDPLFKPLIQTNVHKKRSAYEIIGVHTCEENEPCRIGRTRSCLCQEDFVCDKTPANKNVHLCTKLGYFRLFEANKK | not soluble |
| SAATVPATTRSDQTWDFSCNLDVSFESEEHALIAYTSLAVDKELQPDKVRRVMSVSNNKLSVHFEAIEARLLRASFSAFVDVLTLATRTIQEFGQK | soluble |
| MGHHHHHHSHMKVQGAGQLRLSIDAQDRVLLLHIIEGKGLISKQPGTCDPYVKISLIPEDSRLRHQKTQTVPDCRDPAFHEHFFFPVQEEDDQKRLLVTVWNRASQSRQSGLIGCMSFGVKSLLTPDKEISGWYYLLGEHLGRTKHLKVARRRL | soluble |
| MSLNVLIVDDEANIRKTLTVFMESRGHRVKAVSNSRDACAEAEQQVFDLAFVDIRLGIESGLDLERSLLNACPWIKIVIITAYASIETAVEAMKRGASDYLAKPFTPDQLESITARLAEVCAMEMRIASLQEDLNRMHPEVYFTSRYPSMQRAIELSRQVALSDALVLLRGPSGTGKTVLARSIHNWSQRKEEPFGVVSCPSLSTELLESELFGHVKGSFPGAVRDKPGRVTLCEGGSLFLDEIGDLPLSIQAKLLRFIQDREYERIGDHQTRKADVRIIAATNTNLDLAVREGEFREDLFYRLNGIQIDLPTLAERPNDVEQLALNMLQFFAAQNLKNFDGFTEEARTALRTYSWPGNIRELRNVMERAVILGKNGQIGIELLPDSIVAKTHPVTEGHHHHHH | soluble |
